Data on two molecules can be found in article PMC8352940 (2021).

The assay concerns the target SARS-CoV-2 RBD without the Fc fragment (SARS-CoV-2, UniProt P0DTC2 319-541). Kind of assay: BLI.

B1: nCoVmab2 (antibody, V domains shown)
VH: EVQLVQSGGGVVQPGRSLRLSCAASGFTVSSNYMSWVRQAPGKGLEWVSVIYSGGSTYYADSVKGRFTISRDNSKNTLYLQMNSLRAEDTAVYYCARGDGSDDYYYGMDVWGQGTTVTVSS
VL: QAVLTQPSSVSGAPGQRVTISCTGSSSNVGAGYDVHWYQQLPGTAPKLLIYGNSNRPSGVPDRFSGSKSGTSASLAITGLQAEDEADYYCQSYDSSLSGSVFGGGTKLTVL
For orientation: koff means a measure of how fast the partners let go of each other. B1 gave a koff of 4.95e-05 s⁻¹.

B2: nCoVmab1 (antibody, V domains shown)
VH: QVQLVESGGGLVQPGGSLRLSCAASGFTVSSNYMSWVRQAPGKGLEWVSVIYSGGSTYYADSVKGRFTISRDNSKNTLYLQMNSLRAEDTAVYYCARGDGSDDYYYGMDVWGQGTTVTVSS
VL: QSVVTQPPSVSGAQGQRVFISCTGNGANIGMGYDVHWYQQLPGRAPKLLIFGNTNRPSGVPDRFSASRSGTSASLAITGLQTADEADYYCQSYDGNLRASVFGGGTKLTVL
The molecule B2 showed a koff of 1.01e-05 s⁻¹.
